Values quoted from earlier work, collected in patent publication US20250186538A1, “BIVALIRUDIN COMPOUNDS” (The General Hospital Corporation, priority 2022, published 2025).

Details: in vivo

D-Phe-Pro-Arg-Pro-Gly-Gly-Gly-Gly-Asn-Gly-Asp-Phe-Glu-Glu-Ile-Pro-Glu-Glu-Tyr-Leu [bival]
Half-life: about 20 min
